Test results taken from article PMC9938897.
Values belong to the substance of their own block, whether it stands above or below them.

Experiments:
[1] = target: CvkR (Alr3614) (Anabaena sp. PCC 7120) (UniProt A0ACD6B984); assay: DNase I footprinting; details: EMSA: 10 mM Tris-HCl pH 8.0, 25 mM MgCl2, 50 mM NaCl, 1 mM DTT, 1 mM EDTA, 50 ug/mL poly(dI-dC), 0.01% NP-40, 10% glycerol, 2 nM probe, 25 C 30 min …
[2] = target: CvkR (Alr3614), MerR-type transcriptional regulator of the Anabaena sp. PCC 7120 CAST system, 150-residue form CvkR-S (Anabaena (Nostoc) sp. PCC 7120); assay: SEC; analytical gel filtration, Superdex 75 10/300 GL, 10 mM Tris-HCl pH 8.8, 100 mM NaCl, 2 mM beta-mercaptoethanol; ~500 uL untagged protein at ~0.6 mg/mL; calibrated with LMW standards; self-association (dimer)
[3] = target: CvkR R42E (Anabaena (Nostoc) sp. PCC 7120); assay: as above
[4] = target: CvkRmut (R19A-R20A-Q23A-K40A-R42A-N66A) (Anabaena (Nostoc) sp. PCC 7120); assay: as above

Sequence of CvkR (Alr3614) (Anabaena sp. PCC 7120) (A0ACD6B984 entry or part of it): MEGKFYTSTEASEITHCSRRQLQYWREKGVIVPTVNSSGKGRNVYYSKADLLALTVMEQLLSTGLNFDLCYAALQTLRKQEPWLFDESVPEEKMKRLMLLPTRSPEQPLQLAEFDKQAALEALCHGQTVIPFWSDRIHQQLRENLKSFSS

Substance: AACTCCTTTCTCTCGCCAATACTGCAACTGGCGGCGAGAGCAATGAGTAATTTCTGATGCTTCTGTGCTTGTGTAGAACTTTCCTTCCATAAGAAACATCCTATAGAAGCATCTTCTAAAACACATTAGTGCTTTGTATAACATTATGTGTTTTGTATGGTATTTTATTTTTATGAGCCAAAAAACTATTCAATGTCGCTTAATTGCCAGTGAATCTACCCGCCAAAAACTCTGGAAGTTAATGGCAGAATCGAACACACCTCTAATTAACGAACTGCTTCAGCAGC (double strand) [Pcas12k footprint probe]
- binding [1]: binds

- stoichiometry N [2]: 2
Substance: CvkR (Alr3614), MerR-type transcriptional regulator of the Anabaena sp. PCC 7120 CAST system, 150-residue form CvkR-S (natural protein)

- stoichiometry N [3]: 2
Substance: CvkR R42E (natural protein)

- stoichiometry N [4]: 2
Substance: CvkRmut (R19A-R20A-Q23A-K40A-R42A-N66A) (natural protein)
